This passage reports Km, kcat and kcat/Km results from paper PMC7334433, “Enzymatic characterization and structure-function relationship of two chitinases, LmChiA and LmChiB, from Listeria monocytogenes” (Heliyon, 2020).

In the data set the test system is CC(=O)N[C@H]1[C@H](Oc2ccc([N+](=O)[O-])cc2)O[C@H](CO)[C@@H](O[C@@H]2O[C@H](CO)[C@@H](O)[C@H](O)[C@H]2NC(C)=O)[C@@H]1O. Kind of data set: purified protein. Conditions: 20 mM sodium phosphate pH 7.4, 37 °C (standard assay), substrate 0.05–0.45 mM.

As for LmChiA (Listeria monocytogenes EGD-e), the Km turned out to be 1622 ± 13 µM, the turnover number (kcat) is 33.6 ± 1 s⁻¹ and the kcat/Km stood at 20000 M⁻¹ s⁻¹.
Turning to LmChiB (Listeria monocytogenes EGD-e), the Km was 375 ± 27 µM, the kcat came to 72.1 ± 1.4 s⁻¹ and the kcat/Km came to 190000 M⁻¹ s⁻¹.

What is called Km is the substrate concentration at which the rate is half of its maximum. The kcat is the number of substrate molecules converted per active site and unit of time at saturation. One may read the kcat/Km as the turnover number divided by the Michaelis constant.
